We go through 3 molecules from article PMC7195491, “DIP/Dpr interactions and the evolutionary design of specificity in protein families” (Nature Communications, 2020).

Holding throughout (details): both partners purified
Test [1] concerns the target T1, DIP-β (isoformG), extracellular region (Drosophila melanogaster).
T1 construct: DIP-β, Drosophila melanogaster, isoform G as printed, extracellular region; source: HEK293F cells, transiently transfected, purified from conditioned media (Ni-IMAC, size-exclusion chromatography)
Kind of test: SPR; Biacore T100, CM4 chip; DIPs and DIP mutants immobilised by amine coupling, Dprs as analytes; 25 °C; 10 mM Tris-HCl pH 7.2, 150 mM NaCl, 1 mM EDTA, 1 mg/mL BSA, 0.01% Tween-20; duplicate responses fit globally to a 1:1 model; Rmax fixed for KDs > 100 μM, lower limit listed for KDs > 300 μM.

Test [2] concerns the target T2, DIP-α (Drosophila melanogaster).
T2 construct: DIP-α, Drosophila melanogaster, extracellular region; The PDB entries are cited structures and may hold shorter constructs; also called blue subgroup DIP; source: HEK293F, transiently transfected, purified from conditioned media (Ni IMAC, SEC)
Description: SPR; Biacore T100, CM4 chip; DIPs and DIP mutants immobilised by amine coupling (760-980 RU), Dprs and Dpr mutants as analytes (three-fold dilution series, up to 81 μM, in some cases up to 27 or 9 μM); 25 °C; 10 mM Tris-HCl pH 7.2, 150 mM NaCl, 1 mM EDTA, 1 mg/mL BSA, 0.01% Tween-20; equilibrium fit, 1:1 model; for KDs > 300 μM a lower limit is listed.

Test [3] has as its target T3, DIP-α A11T (Drosophila melanogaster).
T3 construct: DIP-α, Drosophila melanogaster, extracellular region; the results' sentence speaks of 'Dpr10 positions 10 and 11'; source: HEK293F, transiently transfected, purified from conditioned media (Ni IMAC, SEC)
The test is described as above.

The target of test [4] is T4, DIP-α K10Q (Drosophila melanogaster).
T4 construct: DIP-α, Drosophila melanogaster, extracellular region; source: HEK293F, transiently transfected, purified from conditioned media (Ni IMAC, SEC)
The test is described as above.

B1: Dpr10 V31K Q29E L10G {V144K Q142E L93G}, extracellular region (domain or fragment)
chain: WNEPYFDLTMPRNITSLVGKSAYLGCRVKHLGNKTVAWIRHRDGHILTVGTYTYTTDQRFQTSYHRDIDEWTLQIKWAQQRDAGVYECQISTEPKRSYSVNLNIVVPTATILGGPDLYVDKGSTINLTCIIKFSPEPPTHIFWYHQDKVLSEETSGGRLKFKTIKSEETKSILLIYDADLLHSGKYSCYPSNTEIASIR
modifications: Limits not printed (ref. 11). Start follows PDB 6NRQ entity 1 (W3 = UniProt 50); end is the end of Ig2 in the entry's features.
Molecule B1 registered a Kd in test [1] above 500 µM.

B2: Dpr10 V31K Q29E L10G (domain or fragment)
chain: B1 chain
modifications: Same molecule as Dm6. Limits not printed (ref. 11). Start follows PDB 6NRQ; end is the end of Ig2 in the entry's features.
Regarding B2, in test [2], the dissociation constant (Kd) was above 500000 nM.

B3: Dpr10 (domain or fragment)
chain: YQRQSVSNNNHNNAEAKPTHAPPSHYPHGHKWNEPYFDLTMPRNITSLVGKSAYLGCRVKHLGNKTVAWIRHRDLHILTVGTYTYTTDQRFQTSYHRDIDEWTLQIKWAQQRDAGVYECQISTQPVRSYSVNLNIVDLIDAETSDIMQQYYNDDAFYIAENRVYQSSNDEFAGMFGPIQTVAVPTATILGGPDLYVDKGSTINLTCIIKFSPEPPTHIFWYHQDKVLSEETSGGRLKFKTIKSEETKSILLIYDADLLHSGKYSCYPSNTEIASIR
In turn, B3 showed a Kd in test [2] of 1500 ± 100 nM. For the same molecule, the “fold increase of KD over wild type” value in test [3] and in test [4] was around 10 fold each time.
